B1: 43E2, fully human IgG4 CCR5 monoclonal antibody (secreted by cell line NS0mAb43E2) (antibody, V domains shown)
VH: QVQLVESGGGVVQPGRSLRLSCAASGFTLSGYGMHWVRQAPGKGLEWVSLISYDGSNKYYADSVKGRFTISRDDSKNTLYLRMNSLRAEDTAVYYCARGRNDFWSGYYTAGMDVWGQGTTVTVSS
VL: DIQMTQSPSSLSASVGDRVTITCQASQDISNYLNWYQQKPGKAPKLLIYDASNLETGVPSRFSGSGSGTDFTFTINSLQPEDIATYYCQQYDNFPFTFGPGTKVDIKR
notes: also called Eu-43E2
B2: 43E2/AK38181, fully human IgG4 CCR5 monoclonal antibody (secreted by cell line NS0mAb43E2/AK38181) (antibody, V domains shown)
VH: B1 VH
VL: DIQMTQSPSSLSASVGDRVTITCQASQGIRKYLNWYQQKPGKVPKLLIYDASNLETGVPSRFSGSGSGTDFTFAISSLQPEDTATYYCQQYDDFPFTFGQGTRLEIKR
notes: also called Eu-43E2/AK38181

Legend:
[1] = target: T1, Human G-protein Chemokine Receptor (CCR5) HDGNR10 (human, UniProt P51681 1-352); assay: cell-based or functional assay
[2] = target: T1, Human G-protein Chemokine Receptor …; assay: cell-based or functional assay; remark: listed apart in the source
[3] = target: T1, Human G-protein Chemokine Receptor …; assay: cell-based or functional assay; remark: listed apart in the source
[4] = target: T1, Human G-protein Chemokine Receptor …; assay: cell-based or functional assay; remark: listed apart in the source
[5] = target: T1, Human G-protein Chemokine Receptor …; assay: cell-based or functional assay; remark: listed apart in the source
[6] = target: T1, Human G-protein Chemokine Receptor …; assay: cell-based or functional assay; remark: listed apart in the source
[7] = target: T1, Human G-protein Chemokine Receptor …; assay: saturation binding of Eu-labelled antibody to CEM.NKR-CCR5 transfected cells, time resolved fluorometry
Excerpt: (§1) The 43E2 and 43E2/AK38181 antibodies were labeled with Europium (Eu) using Dissociation-Enhanced Lanthanide Fluorescence Immunoassay (DELFIA™) Eu-labeling kit (Catalog #1244-302, Perkin Elmer Life Sciences, Boston, Mass.) following the manufacturer's instructions. The labeling agent is the Eu-chelate of N1-(p-isothiocynateobenzyl) diethylenetriamine N1, N2, N3, N3-tetraacetic acid (DTTA). The DTTA group forms a stable complex with Eu³⁺ and the isothiocynate group reacts with primary amino groups on the antibodies at alkaline pH to form a stable, covalent thiourea bond. […] The Eu³⁺ content and protein concentration of each labeled antibody was determined.
(§2) The Eu-43E2 and Eu-43E2/AK38181 saturation binding assays were performed in 96 well plates, with 0.3-0.5 million CEM.NKR-CCR5 transfected cells per well, and various concentrations of Eu-43E2 and Eu-43E2/AK38181 in the absence or presence of 100-fold excess of unlabeled CCR5mAb004 for 1 hour at room temperature (RT). […] The fluorescence emitted from the released Eu was determined by time resolved fluorometry (VICTOR 1420 DELFIA™ fluorometer, Wallac Oy, Turku, Finland). The data were analyzed on Prizm software (GraphPad Software, San Diego, Calif.) to determine the equilibrium dissociation constant (Kd).

[8] = target: T1, Human G-protein Chemokine Receptor …; assay: saturation binding of Eu-labelled antibodies to CEM.NKR-CCR5 transfected cells
Excerpt: as §1, §2

T1 sequence (P51681 whole entry): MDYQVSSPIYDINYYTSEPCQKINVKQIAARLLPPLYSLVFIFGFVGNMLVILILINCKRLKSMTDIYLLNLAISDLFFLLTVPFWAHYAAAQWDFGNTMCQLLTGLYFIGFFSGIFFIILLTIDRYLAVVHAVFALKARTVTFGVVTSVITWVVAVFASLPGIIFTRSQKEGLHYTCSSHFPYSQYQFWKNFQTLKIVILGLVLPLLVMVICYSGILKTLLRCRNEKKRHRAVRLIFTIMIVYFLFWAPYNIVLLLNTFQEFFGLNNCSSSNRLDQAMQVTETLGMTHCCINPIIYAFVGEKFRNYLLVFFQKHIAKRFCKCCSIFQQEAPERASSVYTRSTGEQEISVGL

Row | Binder | IC50 of entry of HIV-1-luciferase pseudotyped with env of 92BR025 (clade B) into U87/CD4/CCR5 cells [2] | IC50 of entry of HIV-1-luciferase pseudotyped with env of 92RW009 (clade A) into U87/CD4/CCR5 cells [2] | IC50 of entry of HIV-1-luciferase pseudotyped with env of 92TH001 (clade E) into U87/CD4/CCR5 cells [2] | IC50 of entry of HIV-1-luciferase pseudotyped with env of 92UG005 (clade D) into U87/CD4/CCR5 cells [2] | IC50 of entry of HIV-1-luciferase pseudotyped with env of 93IN101 (clade C) into U87/CD4/CCR5 cells [2] | IC50 of entry of HIV-1-luciferase pseudotyped with env of 301657 (clade B) into U87/CD4/CCR5 cells [2] | IC50 of entry of HIV-1-luciferase pseudotyped with env of 301714 (clade B) into U87/CD4/CCR5 cells [2] | IC50 of entry of HIV-1-luciferase pseudotyped with env of 302056 (clade B) into U87/CD4/CCR5 cells [2] | IC50 of entry of HIV-1-luciferase pseudotyped with env of 'Enfuvirtide Resistant' (B/Enfuvirtide Resistant) into U87/CD4/CCR5 cells [2] | IC50 of entry of HIV-1-luciferase pseudotyped with env of ASJM108 (clade B) into U87/CD4/CCR5 cells [2] | IC50 of entry of HIV-1-luciferase pseudotyped with env of ASM80 (clade B) into U87/CD4/CCR5 cells [2] | IC50 of entry of HIV-1-luciferase pseudotyped with env of DU151 (clade C) into U87/CD4/CCR5 cells [2] | IC50 of entry of HIV-1-luciferase pseudotyped with env of JRCSFSDM DIM (B/Enfuvirtide Resistant) into U87/CD4/CCR5 cells [2] | IC50 of entry of HIV-1-luciferase pseudotyped with env of JRFL (clade B) into U87/CD4/CCR5 cells [2] | IC50 of entry of HIV-1-luciferase pseudotyped with env of RU570 (clade G) into U87/CD4/CCR5 cells [2] | Mean IC50 over the panel of HIV-1-luciferase pseudotyped viruses, entry into U87/CD4/CCR5 cells [2] | Median IC50 over the panel of HIV-1-luciferase pseudotyped viruses, entry into U87/CD4/CCR5 cells [2] | Median IC50, inhibition of HIV-1-luciferase pseudotyped viruses [3] | IC50 (read off the curve), HIV-1-JRFL entry, Donor 1 target cells [4] | IC50 (read off the curve), HIV-1-JRFL entry, Donor 2 target cells [5] | further results
1 | B1 | 5.6 nM | 3.2 nM | 1.2 nM | 2.4 nM | 1 nM | 22.5 nM | 35.9 nM | 8 nM | 8.5 nM | 8.7 nM | 7.7 nM | 2.2 nM | 9.7 nM | 5.5 nM | 5.2 nM | 8.4 nM | 5.8 nM | 5.8 nM | ~1000 nM | ~800 nM | percent of HIV-1-JRFL entry blocked at the highest concentrations tested (up to 2000 nM) [1]: ≤ 60%; IC50 (read off the curve), HIV-1-JRFL entry, Donor 3 target cells [6]: ~800 nM; Kd [7]: 2.36 nM
2 | B2 | 1 nM | 1.1 nM | 0.6 nM | 1.4 nM | 1.1 nM | 4.4 nM | 5 nM | 2.3 nM | 2.5 nM | 2.2 nM | 2 nM | 1.3 nM | 2.8 nM | 2.2 nM | 1.7 nM | 2.1 nM | 1.7 nM | 1.7 nM | ~100 nM | ~60 nM | fold lower IC50 than 43E2, HIV-1-JRFL entry into activated human T-cells [1]: ≥ 10 fold; fold lower IC50 than 43E2, inhibition of HIV-1 entry into U87/CD4/CCR5 cells [1]: ~3 fold; fold lower IC90 than 43E2, inhibition of HIV-1 entry into U87/CD4/CCR5 cells [1]: ~10 fold; IC50 (read off the curve), HIV-1-JRFL entry, Donor 3 target cells [6]: ~20 nM; fold difference in binding affinity against 43E2 [8]: ~2 fold; Kd [7]: 1.18 nM

From patent publication US20070122405A1 (Human Genome Sciences, published 2007)
